* marks the point of attachment. Palmitoyl = CCCCCCCCCCCCCCCC(=O)*
B1: Compound 99 (peptide)
peptide: Palmitoyl-NGEVQAEIKKSW-NH2
SMILES: CCCCCCCCCCCCCCCC(=O)N[C@@H](CC(N)=O)C(=O)NCC(=O)N[C@@H](CCC(=O)O)C(=O)N[C@H](C(=O)N[C@@H](CCC(N)=O)C(=O)N[C@@H](C)C(=O)N[C@@H](CCC(=O)O)C(=O)N[C@H](C(=O)N[C@@H](CCCCN)C(=O)N[C@@H](CCCCN)C(=O)N[C@@H](CO)C(=O)N[C@@H](Cc1c[nH]c2ccccc12)C(N)=O)[C@@H](C)CC)C(C)C
B2: Compound 100 (peptide)
peptide: Palmitoyl-NGEVQAEIKKSWSR-NH2
SMILES: CCCCCCCCCCCCCCCC(=O)N[C@@H](CC(N)=O)C(=O)NCC(=O)N[C@@H](CCC(=O)O)C(=O)N[C@H](C(=O)N[C@@H](CCC(N)=O)C(=O)N[C@@H](C)C(=O)N[C@@H](CCC(=O)O)C(=O)N[C@H](C(=O)N[C@@H](CCCCN)C(=O)N[C@@H](CCCCN)C(=O)N[C@@H](CO)C(=O)N[C@@H](Cc1c[nH]c2ccccc12)C(=O)N[C@@H](CO)C(=O)N[C@@H](CCCNC(=N)N)C(N)=O)[C@@H](C)CC)C(C)C
B3: Compound 101 (peptide)
peptide: Palmitoyl-NGEVQAEIKKSWSRWT-NH2
SMILES: CCCCCCCCCCCCCCCC(=O)N[C@@H](CC(N)=O)C(=O)NCC(=O)N[C@@H](CCC(=O)O)C(=O)N[C@H](C(=O)N[C@@H](CCC(N)=O)C(=O)N[C@@H](C)C(=O)N[C@@H](CCC(=O)O)C(=O)N[C@H](C(=O)N[C@@H](CCCCN)C(=O)N[C@@H](CCCCN)C(=O)N[C@@H](CO)C(=O)N[C@@H](Cc1c[nH]c2ccccc12)C(=O)N[C@@H](CO)C(=O)N[C@@H](CCCNC(=N)N)C(=O)N[C@@H](Cc1c[nH]c2ccccc12)C(=O)N[C@H](C(N)=O)[C@@H](C)O)[C@@H](C)CC)C(C)C
B4: Compound 103 (peptide)
peptide: Palmitoyl-WTLALDFKRKAR-NH2
SMILES: CCCCCCCCCCCCCCCC(=O)N[C@@H](Cc1c[nH]c2ccccc12)C(=O)N[C@H](C(=O)N[C@@H](CC(C)C)C(=O)N[C@@H](C)C(=O)N[C@@H](CC(C)C)C(=O)N[C@@H](CC(=O)O)C(=O)N[C@@H](Cc1ccccc1)C(=O)N[C@@H](CCCCN)C(=O)N[C@@H](CCCNC(=N)N)C(=O)N[C@@H](CCCCN)C(=O)N[C@@H](C)C(=O)N[C@@H](CCCNC(=N)N)C(N)=O)[C@@H](C)O
B5: Compound 104 (peptide)
peptide: Palmitoyl-SRWTLALDFKRKAR-NH2
SMILES: CCCCCCCCCCCCCCCC(=O)N[C@@H](CO)C(=O)N[C@@H](CCCNC(=N)N)C(=O)N[C@@H](Cc1c[nH]c2ccccc12)C(=O)N[C@H](C(=O)N[C@@H](CC(C)C)C(=O)N[C@@H](C)C(=O)N[C@@H](CC(C)C)C(=O)N[C@@H](CC(=O)O)C(=O)N[C@@H](Cc1ccccc1)C(=O)N[C@@H](CCCCN)C(=O)N[C@@H](CCCNC(=N)N)C(=O)N[C@@H](CCCCN)C(=O)N[C@@H](C)C(=O)N[C@@H](CCCNC(=N)N)C(N)=O)[C@@H](C)O
B6: Compound 105 (peptide)
peptide: Palmitoyl-NGEVQAEIKKSWSRWTLALD-NH2
SMILES: CCCCCCCCCCCCCCCC(=O)N[C@@H](CC(N)=O)C(=O)NCC(=O)N[C@@H](CCC(=O)O)C(=O)N[C@H](C(=O)N[C@@H](CCC(N)=O)C(=O)N[C@@H](C)C(=O)N[C@@H](CCC(=O)O)C(=O)N[C@H](C(=O)N[C@@H](CCCCN)C(=O)N[C@@H](CCCCN)C(=O)N[C@@H](CO)C(=O)N[C@@H](Cc1c[nH]c2ccccc12)C(=O)N[C@@H](CO)C(=O)N[C@@H](CCCNC(=N)N)C(=O)N[C@@H](Cc1c[nH]c2ccccc12)C(=O)N[C@H](C(=O)N[C@@H](CC(C)C)C(=O)N[C@@H](C)C(=O)N[C@@H](CC(C)C)C(=O)N[C@@H](CC(=O)O)C(N)=O)[C@@H](C)O)[C@@H](C)CC)C(C)C
B7: Compound 6 (peptide)
peptide: Palmitoyl-YFRRLHSTRNYIH-NH2
SMILES: CCCCCCCCCCCCCCCC(=O)N[C@@H](Cc1ccc(O)cc1)C(=O)N[C@@H](Cc1ccccc1)C(=O)N[C@@H](CCCNC(=N)N)C(=O)N[C@@H](CCCNC(=N)N)C(=O)N[C@@H](CC(C)C)C(=O)N[C@@H](Cc1c[nH]cn1)C(=O)N[C@@H](CO)C(=O)N[C@H](C(=O)N[C@@H](CCCNC(=N)N)C(=O)N[C@@H](CC(N)=O)C(=O)N[C@@H](Cc1ccc(O)cc1)C(=O)N[C@H](C(=O)N[C@@H](Cc1c[nH]cn1)C(N)=O)[C@@H](C)CC)[C@@H](C)O
B8: Compound 76 (peptide)
peptide: Palmitoyl-TNAGASDTRQQYRKLL-NH2
SMILES: CCCCCCCCCCCCCCCC(=O)N[C@H](C(=O)N[C@@H](CC(N)=O)C(=O)N[C@@H](C)C(=O)NCC(=O)N[C@@H](C)C(=O)N[C@@H](CO)C(=O)N[C@@H](CC(=O)O)C(=O)N[C@H](C(=O)N[C@@H](CCCNC(=N)N)C(=O)N[C@@H](CCC(N)=O)C(=O)N[C@@H](CCC(N)=O)C(=O)N[C@@H](Cc1ccc(O)cc1)C(=O)N[C@@H](CCCNC(=N)N)C(=O)N[C@@H](CCCCN)C(=O)N[C@@H](CC(C)C)C(=O)N[C@@H](CC(C)C)C(N)=O)[C@@H](C)O)[C@@H](C)O
B9: Compound 77 (peptide)
peptide: Palmitoyl-TNAGRADTRQQYRKLL-NH2
SMILES: CCCCCCCCCCCCCCCC(=O)N[C@H](C(=O)N[C@@H](CC(N)=O)C(=O)N[C@@H](C)C(=O)NCC(=O)N[C@@H](CCCNC(=N)N)C(=O)N[C@@H](C)C(=O)N[C@@H](CC(=O)O)C(=O)N[C@H](C(=O)N[C@@H](CCCNC(=N)N)C(=O)N[C@@H](CCC(N)=O)C(=O)N[C@@H](CCC(N)=O)C(=O)N[C@@H](Cc1ccc(O)cc1)C(=O)N[C@@H](CCCNC(=N)N)C(=O)N[C@@H](CCCCN)C(=O)N[C@@H](CC(C)C)C(=O)N[C@@H](CC(C)C)C(N)=O)[C@@H](C)O)[C@@H](C)O
B10: Compound 78 (peptide)
peptide: Palmitoyl-TNAGRSDTAQQYRKLL-NH2
SMILES: CCCCCCCCCCCCCCCC(=O)N[C@H](C(=O)N[C@@H](CC(N)=O)C(=O)N[C@@H](C)C(=O)NCC(=O)N[C@@H](CCCNC(=N)N)C(=O)N[C@@H](CO)C(=O)N[C@@H](CC(=O)O)C(=O)N[C@H](C(=O)N[C@@H](C)C(=O)N[C@@H](CCC(N)=O)C(=O)N[C@@H](CCC(N)=O)C(=O)N[C@@H](Cc1ccc(O)cc1)C(=O)N[C@@H](CCCNC(=N)N)C(=O)N[C@@H](CCCCN)C(=O)N[C@@H](CC(C)C)C(=O)N[C@@H](CC(C)C)C(N)=O)[C@@H](C)O)[C@@H](C)O
B11: Compound 79 (peptide)
peptide: Palmitoyl-TNAGRSDARQQYRKLL-NH2
SMILES: CCCCCCCCCCCCCCCC(=O)N[C@H](C(=O)N[C@@H](CC(N)=O)C(=O)N[C@@H](C)C(=O)NCC(=O)N[C@@H](CCCNC(=N)N)C(=O)N[C@@H](CO)C(=O)N[C@@H](CC(=O)O)C(=O)N[C@@H](C)C(=O)N[C@@H](CCCNC(=N)N)C(=O)N[C@@H](CCC(N)=O)C(=O)N[C@@H](CCC(N)=O)C(=O)N[C@@H](Cc1ccc(O)cc1)C(=O)N[C@@H](CCCNC(=N)N)C(=O)N[C@@H](CCCCN)C(=O)N[C@@H](CC(C)C)C(=O)N[C@@H](CC(C)C)C(N)=O)[C@@H](C)O
B12: Compound 80 (peptide)
peptide: Palmitoyl-TNAARSDTRQQYRKLL-NH2
SMILES: CCCCCCCCCCCCCCCC(=O)N[C@H](C(=O)N[C@@H](CC(N)=O)C(=O)N[C@@H](C)C(=O)N[C@@H](C)C(=O)N[C@@H](CCCNC(=N)N)C(=O)N[C@@H](CO)C(=O)N[C@@H](CC(=O)O)C(=O)N[C@H](C(=O)N[C@@H](CCCNC(=N)N)C(=O)N[C@@H](CCC(N)=O)C(=O)N[C@@H](CCC(N)=O)C(=O)N[C@@H](Cc1ccc(O)cc1)C(=O)N[C@@H](CCCNC(=N)N)C(=O)N[C@@H](CCCCN)C(=O)N[C@@H](CC(C)C)C(=O)N[C@@H](CC(C)C)C(N)=O)[C@@H](C)O)[C@@H](C)O
B13: Compound 81 (peptide)
peptide: Palmitoyl-TNAGRSDTRAQYRKLL-NH2
SMILES: CCCCCCCCCCCCCCCC(=O)N[C@H](C(=O)N[C@@H](CC(N)=O)C(=O)N[C@@H](C)C(=O)NCC(=O)N[C@@H](CCCNC(=N)N)C(=O)N[C@@H](CO)C(=O)N[C@@H](CC(=O)O)C(=O)N[C@H](C(=O)N[C@@H](CCCNC(=N)N)C(=O)N[C@@H](C)C(=O)N[C@@H](CCC(N)=O)C(=O)N[C@@H](Cc1ccc(O)cc1)C(=O)N[C@@H](CCCNC(=N)N)C(=O)N[C@@H](CCCCN)C(=O)N[C@@H](CC(C)C)C(=O)N[C@@H](CC(C)C)C(N)=O)[C@@H](C)O)[C@@H](C)O
B14: Compound 82 (peptide)
peptide: Palmitoyl-TNAGRSATRQQYRKLL-NH2
SMILES: CCCCCCCCCCCCCCCC(=O)N[C@H](C(=O)N[C@@H](CC(N)=O)C(=O)N[C@@H](C)C(=O)NCC(=O)N[C@@H](CCCNC(=N)N)C(=O)N[C@@H](CO)C(=O)N[C@@H](C)C(=O)N[C@H](C(=O)N[C@@H](CCCNC(=N)N)C(=O)N[C@@H](CCC(N)=O)C(=O)N[C@@H](CCC(N)=O)C(=O)N[C@@H](Cc1ccc(O)cc1)C(=O)N[C@@H](CCCNC(=N)N)C(=O)N[C@@H](CCCCN)C(=O)N[C@@H](CC(C)C)C(=O)N[C@@H](CC(C)C)C(N)=O)[C@@H](C)O)[C@@H](C)O

Biological target: PTHR1 receptor
Sequence (P25961 whole entry): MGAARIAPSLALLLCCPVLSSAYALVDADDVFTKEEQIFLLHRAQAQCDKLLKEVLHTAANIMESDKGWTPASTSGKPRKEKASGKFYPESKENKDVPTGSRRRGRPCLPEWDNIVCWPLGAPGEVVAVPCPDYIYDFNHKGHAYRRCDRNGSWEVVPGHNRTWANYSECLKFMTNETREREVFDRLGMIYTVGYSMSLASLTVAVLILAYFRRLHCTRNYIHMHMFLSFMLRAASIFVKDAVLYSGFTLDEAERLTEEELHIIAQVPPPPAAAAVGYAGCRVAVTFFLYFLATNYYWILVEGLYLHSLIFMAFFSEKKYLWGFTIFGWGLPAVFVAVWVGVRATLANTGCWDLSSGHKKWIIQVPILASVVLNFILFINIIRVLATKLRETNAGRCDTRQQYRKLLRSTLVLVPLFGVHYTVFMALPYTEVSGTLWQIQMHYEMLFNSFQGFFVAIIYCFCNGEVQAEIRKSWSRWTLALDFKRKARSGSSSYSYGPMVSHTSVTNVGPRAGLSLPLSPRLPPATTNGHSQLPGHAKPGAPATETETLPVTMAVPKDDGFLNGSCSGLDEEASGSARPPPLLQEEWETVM

Going from B1 to B2, the Fold Shift of EC50 rises from 1 fold to 1.8 fold.

B3 and B4 are the same in Fold Shift of EC50: 1.2 fold for the first, 1.2 fold for the second.

Compared with B5, B6 is lower in Fold Shift of EC50: 1.2 fold for the first, 1.1 fold for the second.

Compared with B7, B8 is higher in Fold Shift of EC50: 1 fold for the first, 16.9 fold for the second.

Going from B9 to B10, the Fold Shift of EC50 rises from 6.9 fold to 12.7 fold.

Compared with B11, B12 is lower in Fold Shift of EC50: 7.2 fold for the first, 2.3 fold for the second.

Compared with B13, B14 is higher in Fold Shift of EC50: 13.8 fold for the first, 23.4 fold for the second.

Going from B1 to B2, the Inhibition of Maximal Response rises from 17.5% to 26.8%.

First: B3
Second: B4
The Inhibition of Maximal Response of the first is higher: 25.3% for the first, -7.3% for the second.

Compared with B5, B6 is higher in Inhibition of Maximal Response: 26.8% for the first, 34% for the second.

First: B7
Second: B8
The Inhibition of Maximal Response of the first is higher: 10.8% for the first, 2.4% for the second.

Going from B9 to B10, the Inhibition of Maximal Response falls from 9.9% to -29.2%.

Going from B11 to B12, the Inhibition of Maximal Response falls from 1.2% to 0.8%.

First: B13
Second: B14
The Inhibition of Maximal Response of the first is higher: -20.8% for the first, -21.6% for the second.

Source: patent publication US20110294738A1, “PTHR1 RECEPTOR COMPOUNDS” (priority 2008, published 2011)
